Data taken from US20170096490A1 (published 2017).
Each block holds one molecule with its values, some of them ahead of it.

How the values were obtained:
[1] = target: human RANK-L (Receptor Activator of Nuclear factor Kappa B Ligand), soluble (human) (UniProt O14788); assay: cell-based or functional assay
[2] = target: T1, human RANK-L (Receptor Activator of Nuclear factor Kappa B Ligand), soluble (human, UniProt O14788 140-317, limits assumed); assay: AlphaScreen, biotinylated RANK-L vs RANK-huFc beads
T1 construct: Used plain, biotinylated or ALEXA647-labeled; also called hRANK-L; sRANK-L
T1 sequence (looked up): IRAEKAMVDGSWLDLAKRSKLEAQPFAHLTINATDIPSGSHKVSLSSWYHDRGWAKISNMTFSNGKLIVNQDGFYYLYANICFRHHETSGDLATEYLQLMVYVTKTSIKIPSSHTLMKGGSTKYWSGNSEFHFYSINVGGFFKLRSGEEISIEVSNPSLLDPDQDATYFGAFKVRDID

[3] = target: T1, human RANK-L (Receptor Activator of …); assay: SPR BIACORE 3000, RANK-L on CM5 chip, 100 nM Nanobody
[4] = target: T1, human RANK-L (Receptor Activator of …); assay: SPR BIACORE 3000, RANK-L on CM5 chip, 100 nM Nanobody; indicative, one concentration

- IC50, NF-kappaB reporter gene assay (luciferase, HEK293T, 300 ng/ml human RANK-L) [1]: 6.03 nM
Molecule: osteoprotegerin (from UniProt O00300 22-401) (receptor)

- IC50 [2]: 0.274 nM
- koff [3]: 0.000127 s⁻¹
- Kd [4]: 0.288 nM
- kon [4]: 441000 M⁻¹ s⁻¹
B1: RANKL18hum3 (VHH)
VHH: EVQLVESGGGLVQPGGSLRLSCAASGRTFSRSAMGWFRQAPGKGREFVGFITGSGGTTYYADSVKGRFTISRDNAQNPVYLQMNSLRPEDTAVYYCGVYRRTYISSTYSESSEYDYWGQGTLVTVSS
